Data as given in patent publication US20230106247A1 (L AND L BIO CO LTD NINGBO CHINA, published 2023).
Like-named read-outs stand apart in the source and are kept apart here.

Experiments:
[1] = biological target: T1, human Sirpα-V1-his (human, UniProt P78324 31-373); experiment: ELISA
T1 construct: range 31-373; Bought (Sino Biological 11612-H08H) or expressed in-house; also called hSirpα-V1; hSirpα-V1-his

[2] = biological target: T2, human T cells (expressing Sirpγ) (human, UniProt Q9P1W8 29-387); experiment: flow cytometry on PBMC
T2 construct: whole, on cells; The target as printed is the cell; also called human PBMCs (T cells)
T2 sequence (Q9P1W8 29-387): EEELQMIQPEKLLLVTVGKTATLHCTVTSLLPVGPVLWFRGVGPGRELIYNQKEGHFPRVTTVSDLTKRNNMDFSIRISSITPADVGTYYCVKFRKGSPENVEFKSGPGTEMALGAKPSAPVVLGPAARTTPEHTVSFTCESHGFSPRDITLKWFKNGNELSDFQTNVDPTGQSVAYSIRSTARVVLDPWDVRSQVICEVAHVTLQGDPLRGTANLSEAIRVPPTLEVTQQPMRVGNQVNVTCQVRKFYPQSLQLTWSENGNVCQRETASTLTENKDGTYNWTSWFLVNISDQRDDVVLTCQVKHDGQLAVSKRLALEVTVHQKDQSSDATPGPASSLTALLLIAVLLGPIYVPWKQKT

[3] = biological target: human Sirpα-V2-his (human); experiment: ELISA EC50 against Ref2
human Sirpα-V2-his (human), sequence (chain, as listed by the source): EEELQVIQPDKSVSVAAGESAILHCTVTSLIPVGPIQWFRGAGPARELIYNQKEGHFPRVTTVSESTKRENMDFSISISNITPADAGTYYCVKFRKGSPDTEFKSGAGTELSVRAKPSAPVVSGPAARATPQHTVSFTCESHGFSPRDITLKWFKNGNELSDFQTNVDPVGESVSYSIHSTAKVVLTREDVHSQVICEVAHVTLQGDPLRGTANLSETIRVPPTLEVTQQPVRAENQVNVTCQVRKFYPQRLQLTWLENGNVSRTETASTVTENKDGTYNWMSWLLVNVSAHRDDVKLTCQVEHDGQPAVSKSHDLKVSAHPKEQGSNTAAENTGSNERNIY
Experimental: (§1) Different antigens (recombinant proteins) such as the human Sirpα-V1-hFc, Sirpα-V1-his, Sirpα-V2-his, Sirpβ-his, Sirpγ-his, monkey Sirpα-his (cynoSirpα-his) or NOD-mSirpα-his described in Example 1 were diluted with a PBS buffer at pH7.4 to concentrations of 1 μg/mL, 2 μg/mL or 5 μg/mL, added into a 96-well ELISA plate (Corning, CLS3590-100EA) at a volume of 50 μL/well, and placed in an incubator at 37° C. for 2 hours. After the liquid was discarded, the wells were added with a blocking solution of 5% skimmed milk (skimmed milk powder available from Bright Dairy) diluted with PBS at 230 μL/well, and incubated in an incubator at 37° C. for 3 hours, or placed overnight at 4° C. (for 16-18 hours) for blocking. […] The plated was washed with PBST for 5 times, then added with 50 μL/well of TMB chromogenic substrate (KPL, Cat #: 52-00-03), incubated at room temperature for 10-15 min, added with 50 μL/well of 1 M H₂SO₄ to stop the reaction, and read by a […] Go microplate reader (ThermoFisher, Cat #: 51119200) for the absorbance value at 450 nm, and then a clone with high binding activity was selected or a EC₅₀ value was calculated according to the OD value.

[4] = biological target: T1, human Sirpα-V1-his; experiment: ELISA EC50 against Ref2
Experimental: as §1

[5] = biological target: T3, human Sirpα-V1-hFc (human, UniProt P78324 31-373); experiment: blocking ELISA, competitor CD47-his
T3 construct: range 31-373; also called hSirpα (dimer); hSirpα-V1-hFc (dimer); not shown: human IgG1 Fc region at the C-terminus
Experimental: The recombinant proteins such as human Sirpα-V1-hFc/Sirpα-V1-his were diluted to concentrations of 5 μg/mL or 2 μg/mL respectively with a PBS buffer at pH 7.4, and then added into a 96-well ELISA plate (Corning, CLS3590-100EA) at a volume of 50 μL/well, and placed in an incubator at 37° C. for 2 hours. After the liquid was discarded, the wells were added with a blocking solution of 5% skimmed milk (skimmed milk powder available from Bright Dairy) diluted with PBS at 230 μL/well, and incubated in an incubator at 37° C. for 3 hours, or placed overnight at 4° C. (for 16-18 hours) for blocking. […] The plate was washed for 5 times, added with 50 μL/well of streptavidin-HRP (GenScript, M00091) or anti-his-HRP secondary antibody (GenScript, A00612) diluted at 1:1000, incubated at 37° C. for 1 hour, and then washed with PBST for 5 times. Each well was added with 50 μL of TMB (Surmodic, Cat #: TTMB-1000-01) for color development, and added with 50 μL/well of 1 M H₂SO₄ to stop the reaction. The readings on a microplate reader (MultiskanGO Thermo, Model 51119200) were subjected to data analysis by GraphPad prism 5.

[6] = biological target: human Sirpα-V2-his (human); experiment: blocking ELISA, competitor CD47-his
Experimental: Specifically, the recombinant protein of human Sirpα-V2-his was diluted to a concentration of 2 μg/mL with a PBS buffer at pH7.4, then added into a 96-well ELISA plate (Corning, CLS3590-100EA) at a volume of 50 μL/well, and placed in an incubator at 37° C. for 2 hours. After the liquid was discarded, the wells were added with a blocking solution of 5% skimmed milk (skimmed milk powder available from Bright Dairy) diluted with PBS at 230 μL/well, and incubated in an incubator at 37° C. for 3 hours, or placed overnight at 4° C. (for 16-18 hours) for blocking. […] The plate was washed for 5 times, added with 50 μL/well of a streptavidin-HRP secondary antibody (GenScript, M00091) diluted at 1:1000, incubated at 37° C. for 1 hour, and then washed with PBST for 5 times. Each well was added with 50 μL TMB (Surmodic, Cat #TTMB-1000-01) for color development, and added with 50 μL/well of 1 M H₂SO₄ to stop the reaction. The readings on a microplate reader (MultiskanGO Thermo, Model: 51119200) were subjected to data analysis by GraphPad prism 5.

[7] = biological target: T3, human Sirpα-V1-hFc; experiment: blocking ELISA, competitor CD47-his; remark: listed apart in the source
Experimental: The antigens PD-1 and Sirpα expressed according to the method of Example 1 were diluted with a PBS buffer at pH7.4 to a concentration of 2 μg/mL, added into a 96-well ELISA plate (Corning, CLS3590-100EA) at a volume of 50 μL/well, and incubated at 37° C. for 2 hours. After the liquid was discarded, the wells were added with a blocking solution of 5% skimmed milk (Sangon Biotech (Shanghai) Co., Ltd., A600669-0250) formulated with PBS at 200 μL/well, and incubated at 37° C. for 3 hours for blocking. […] The plate was washed with PBST for 5 times, added with 50 μL/well of HRP-labeled secondary antibody (GenScript Biotechnology Co., Ltd., M00091) diluted at 1:1000, and incubated at 37° C. for 1 hour. The plated was washed with PBST for 5 times, then added with 50 μl/well of TMB chromogenic substrate (KPL, 52-00-03), incubated at room temperature for 5-10 min, added with 50 μl/well of 1 M H₂SO₄ to stop the reaction, and read by a […] Go microplate reader (ThermoFisher, 51119200) for the absorbance value at 450 nm, and then IC₅₀ was calculated according to the OD value.

[8] = biological target: T4, human Sirpα-V1 on CHO-K1 cells (CHO-K1 hSirpα+ cell line) (human, UniProt P78324 31-504); experiment: cell ELISA on hSirpα-v1+ cell strain
T4 construct: whole, on cells; also called hSirpα-v1+ cell strain
Text: The readings on a microplate reader (MultiskanGO Thermo, Model 51119200) were subjected to data analysis by GraphPad prism 5.

EC50 [1]: 0.087 nM
fold stronger binding than Ref2 [3]: 2.9 fold
fold stronger binding than Ref2 [4]: 1.4 fold
IC50 [5]: 4.81 nM
IC50 [6]: 2.39 nM
IC50 [7]: 3.88 nM
EC50 [8]: 0.124 nM
B1: humanized antibody mab14-h16 (antibody, human IgG4 S228P, kappa, V domains shown)
VH: QVQLVQSGAEVKKPGASVKVSCKASGYNFNIYWINWVRQAPGQGLEWIGNIYPSSISTNYNEKFKTRATLTVDKSTSTVYMELSSLRSEDTAVYYCARSEGTYYGGRYEGDWFGYWGQGTLVTVSS
VL: DIQMTQSPSSLSASVGDRVTITCRASQDIRNYLNWYQQKPGKAPKLLIYFTSTLHSGVPSRFSGSGSGTDFTLTISSLQPEDFATYYCQQGNTLPWTFGGGTKVEIKR
notes: hIgG4, κ
binding result [2]: no binding (tested: negative control 1.67%)
